Assay results published in patent US20230008090A1 (WUXI BIOLOGICS IRELAND, published 2023).

Legend:
[1] = biological target: T1, cynomolgus monkey EGFR on CHOK1-cynoPro1 (EGFR+/CD3-) cells (cynomolgus monkey, UniProt A0A2K5WK39 25-1210); experiment: flow cytometry on CHOK1-cynoPro1 cells
T1 construct: whole, on cells; also called cyno EGFR
Procedure: (§1) Binding of EGFR×CD3 bispecific antibodies to cynomolgus monkey CD3 and EGFR expressing cells was determined by flow cytometry.
(§2) Briefly, 1×10⁵ cynomolgus monkey PBMC(CD3+/EGFR−) cells or CHOK1-cynoPro1 (EGFR+/CD3−) cells were incubated for 60 minutes at 4° C. with serial dilutions of EGFR×CD3 bispecific or hIgG4 isotype control antibodies. After washing twice with cold PBS supplemented with 1% bovine serum albumin (wash buffer), cell surface bound antibody was detected by incubating the cells with Fluorescence-labeled anti-human IgG antibody for 30 minutes at 4° C. Cells were washed twice in the same buffer and the mean fluorescence (MFI) of stained cells was measured using a FACS Canto II cytometer (BD Biosciences). Wells containing no antibody or secondary antibody only were used to establish background fluorescence. Four-parameter non-linear regression analysis was used to obtain EC₅₀ values for cell binding using GraphPad Prism software.

[2] = biological target: T2, human CD3 on Jurkat.2B8 (CD3+/EGFR-) cells (human, UniProt P07766 23-207); experiment: flow cytometry on Jurkat.2B8 (CD3+/EGFR-) cells
T2 construct: whole, on cells; CD3 complex on cells; also called hCD3
T2 sequence (P07766 23-207): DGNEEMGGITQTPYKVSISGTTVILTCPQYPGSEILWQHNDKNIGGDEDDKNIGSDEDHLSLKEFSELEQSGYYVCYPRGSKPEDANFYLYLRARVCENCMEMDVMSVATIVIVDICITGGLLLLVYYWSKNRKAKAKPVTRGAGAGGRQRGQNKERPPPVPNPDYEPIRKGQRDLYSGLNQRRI
Procedure: Binding of EGFR×CD3 bispecific antibodies to human CD3 and EGFR expressing cells was determined by flow cytometry.
as §2, with “After” for “Briefly, 1×10⁵ cynomolgus monkey PBMC(CD3+/EGFR−) cells or CHOK1-cynoPro1 (EGFR+/CD3−) cells were incubated for 60 minutes at 4° C. with serial dilutions of EGFR×CD3 bispecific or hIgG4 isotype control antibodies. After”

[3] = biological target: T3, cynomolgus monkey CD3 on cynomolgus monkey PBMC / T cells (cynomolgus monkey, UniProt Q95LI5 22-198); experiment: flow cytometry on cyno T cells (cynomolgus monkey PBMC)
T3 construct: whole, on cells; CD3 complex on primary cells; also called cyno CD3
T3 sequence (Q95LI5 22-198): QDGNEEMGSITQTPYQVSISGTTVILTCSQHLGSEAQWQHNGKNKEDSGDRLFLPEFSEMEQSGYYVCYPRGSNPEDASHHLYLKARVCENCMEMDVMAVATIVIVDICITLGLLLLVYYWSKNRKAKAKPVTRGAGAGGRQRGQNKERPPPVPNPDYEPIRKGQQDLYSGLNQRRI
Procedure: as §1, §2

[4] = biological target: T2, human CD3 on Jurkat.2B8 (CD3+/EGFR-) …; experiment: FACS affinity on Jurkat.2B8 cells, quantitative beads
Procedure: Tested antibodies were serially diluted in wash buffer (1×PBS/1% BSA) and incubated with cells at 4° C. for 1 h. […] The cells were then washed once and re-suspended in 1×PBS/1% BSA, and analyzed by flow cytometry. Fluorescence intensity will be converted to bound molecules/cell based on the quantitative beads (Quantum™ MESF Kits, Bangs Laboratories, Inc.).

| EC50 [1] [nM] | EC50 [2] [nM] | EC50 [3] [nM] | Kd [4] [nM] | Binder |
| --- | --- | --- | --- | --- |
| 0.5 |  |  |  | Panitumumab (antibody, human IgG2, V domains shown, the VH end in the benchmark IgG may differ; also called Anti-EGFR antibody; anti-EGFR mAb) VH: QVQLQESGPGLVKPSETLSLTCTVSGGSVSSGDYYWTWIRQSPGKGLEWIGHIYYSGNTNYNPSLKSRLTISIDTSKTQFSLKLSSVTAADTAIYYCVRDRVTGAFDIWGQGTMVTV VL: DIQMTQSPSSLSASVGDRVTITCQASQDISNYLNWYQQKPGKAPKLLIYDASNLETGVPSRFSGSGSGTDFTFTISSLQPEDIATYFCQHFDHLPLAFGGGTKVEIK |
|  | 0.15 | 0.21 |  | W3311-2.306.4-z1-uIgG1K (antibody, V domains shown, also called humanized anti-CD3 antibody; Humanized anti-CD3 mAb) VH: QVQLVQSGAEVKKPGSSVKVSCKASGFAFTDYYIHWVRQAPGQGLEWMGWISPGNVNTKYNENFKGRVTITADKSTSTAYMELSSLRSEDTAVYYCARDGYSLYYFDYWGQGTLVTVSS VL: DIVMTQSPDSLAVSLGERATINCKSSQSLLNSRTRKNYLAWYQQKPGQPPKLLIYWASTRQSGVPDRFSGSGSGTDFTLTISSLQAEDVAVYYCTQSHTLRTFGGGTKVEIK |
|  | 20.8 | 26.4 | 4.7 | W3448-T3U1.E17R-1.uIgG4V9 (bispecific antibody, Four-chain Ig-like bispecific: anti-CD3 Fab arm (T3) and anti-EGFR chimeric Fab arm with TCR constant domains (U1); IgG4 Fc with S228P, F234A, L235A and knob/hole mutations already contained in the full-length entries; also called lead BsAb; anti-CD3/anti-EGFR bispecific antibody) heavy 1: QVQLVQSGAEVKKPGSSVKVSCKASGFAFTDYYIHWVRQAPGQGLEWMGWISPGNVNTKYNENFKGRVTITADKSTSTAYMELSSLRSEDTAVYYCARDGYSLYYFDYWGQGTLVTVSSASTKGPSVFPLAPCSRSTSESTAALGCLVKDYFPEPVTVSWNSGALTSGVHTFPAVLQSSGLYSLSSVVTVPSSSLGTKTYTCNVDHKPSNTKVDKRVESKYGPPCPPCPAPEAAGGPSVFLFPPKPKDTLMISRTPEVTCVVVDVSQEDPEVQFNWYVDGVEVHNAKTKPREEQFNSTYRVVSVLTVLHQDWLNGKEYKCKVSNKGLPSSIEKTISKAKGQPREPQVYTLPPCQEEMTKNQVSLWCLVKGFYPSDIAVEWESNGQPENNYKTTPPVLDSDGSFFLYSRLTVDKSRWQEGNVFSCSVMHEALHNHYTQKSLSLSLGK light 1: not shown heavy 2: QVQLQESGPGLVKPSETLSLTCTVSGGSVSSGDYYWTWIRQSPGKGLEWIGHIYYSGNTNYNPSLKSRLTISIDTSKTQFSLKLSSVTAADTAIYYCVRDRVTGAFDIWGQGTMVTVLEDLKNVFPPEVAVFEPSEAEISHTQKATLVCLATGFYPDHVELSWWVNGKEVHSGVCTDPQPLKEQPALQDSRYALSSRLRVSATFWQNPRNHFRCQVQFYGLSENDEWTQDRAKPVTQIVSAEAWGRYGPPCPPCPAPEAAGGPSVFLFPPKPKDTLMISRTPEVTCVVVDVSQEDPEVQFNWYVDGVEVHNAKTKPREEQFNSTYRVVSVLTVLHQDWLNGKEYKCKVSNKGLPSSIEKTISKAKGQPREPQVCTLPPSQEEMTKNQVSLSCAVKGFYPSDIAVEWESNGQPENNYKTTPPVLDSDGSFFLVSRLTVDKSRWQEGNVFSCSVMHEALHNHYTQKSLSLSLGK light 2: DIQMTQSPSSLSASVGDRVTITCQASQDISNYLNWYQQKPGKAPKLLIYDASNLETGVPSRFSGSGSGTDFTFTISSLQPEDIATYFCQHFDHLPLAFGGGTKVEIKPDIQNPDPAVYQLRDSKSSDKSVCLFTDFDSQTQVSQSKDSDVYITDKCVLDMRSMDFKSNSAVAWSQKSDFACANAFQNSIIPEDTFFPSPESS |
